For experiment [1], the target named is PLIC-2 UBL domain UBLN2 1-107 (human, UniProt Q9UHD9 1-107). Description: NMR titration.
The target of experiment [2] is Ubiquitin (UniProt P0CG48 1-76). In words: NMR titration.

Sequence of PLIC-2 UBL domain UBLN2 1-107 (Q9UHD9 1-107): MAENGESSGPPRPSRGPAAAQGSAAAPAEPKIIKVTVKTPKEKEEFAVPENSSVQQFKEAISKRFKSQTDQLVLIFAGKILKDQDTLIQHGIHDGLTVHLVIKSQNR

On to PEVRFQQQLEQLNAMGFLNREANLQALIATGGDINAAIERLLGSQPS (domain or fragment, human, UniProt Q9UHD9 578-624, looked up) [PLIC-2 UBA domain UBLN2 578-624], for which the Kd in experiment [1] came out at 175 ± 25 µM; in experiment [2] it was 8.1 ± 1.5 µM.

The values above are taken from PMC5341616 (Biochemistry and Biophysics Reports, 2017).
